Results taken from patent US20130324474A1 (Eli Lilly, published 2013).
Positions count from the first letter of the chain named. Names may count otherwise. One block for each binder: values may come before it.

How the values were obtained:
[1] = biological target: T1, Recombinant Human GFRα-1/GDNF Rα-1 Fc Chimera (human, UniProt P56159 25-429); assay: ELISA, plate-bound human GFRα1-Fc; lower end of the 95% confidence range, n = 14
T1 construct: Purchased Fc chimera; It was captured on protein A in Biacore and coated on the plate in ELISA; also called GFRα1-Fc; recombinant human GFRα1-Fc chimera, carrier-free; not shown: Fc part of a purchased Fc chimera
T1 sequence (looked up): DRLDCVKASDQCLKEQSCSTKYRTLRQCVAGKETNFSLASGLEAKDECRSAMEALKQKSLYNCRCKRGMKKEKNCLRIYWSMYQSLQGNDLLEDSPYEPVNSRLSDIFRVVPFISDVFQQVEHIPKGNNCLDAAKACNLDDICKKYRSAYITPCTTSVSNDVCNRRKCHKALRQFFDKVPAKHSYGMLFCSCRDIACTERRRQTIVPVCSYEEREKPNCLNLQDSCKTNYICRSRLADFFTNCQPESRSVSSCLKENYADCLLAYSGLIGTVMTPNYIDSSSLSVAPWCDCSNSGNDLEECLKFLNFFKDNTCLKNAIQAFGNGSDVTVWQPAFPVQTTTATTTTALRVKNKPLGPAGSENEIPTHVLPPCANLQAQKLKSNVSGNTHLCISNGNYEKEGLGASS
Experimental: (§1) Each well of a 96-well plate (Greiner 655081 Immunobind ELISA plates) is coated with 70 μl of human GFRα1 (recombinant human GFRα1-Fc chimera, carrier-free) at 1 μg/ml in carbonate buffer, pH 9.6. If an irrelevant receptor is coated, it is an irrelevant Fc chimera and is coated at the same concentration as GFRα1. The plates are sealed and incubated at 4° C. overnight. The wells are aspirated and washed twice with washing buffer (20 mM Tris (hydroxymethyl) aminomethane, pH 7.4, 0.15 M NaCl, 0.1% Tween-20), using an automatic plate washer. The plates are blocked with 200 μl blocking buffer per well (3% Carnation Instant milk in the above washing buffer) for at least 1 hour at room temperature. Plates are washed twice with washing buffer. […]
(§2) A 50 μl aliquot of horseradish peroxidase-conjugated streptavidin (Jackson ImmunoResearch, catalog #016-030-084), diluted 1:1000 in blocking buffer, is added to each well and incubated for 20-30 minutes at room temperature. […] The absorbance of the wells is read at 490 nm on a Molecular Devices SpectraMax250 plate reader. The average absorbance for the triplicate wells for each condition are determined, and the resulting values are processed for EC₅₀ calculation with Graph Pad Prism software to provide a 95% confidence range.

[2] = biological target: T1, Recombinant Human GFRα-1/GDNF Rα-1 Fc …; assay: ELISA, plate-bound human GFRα1-Fc; upper end of the 95% confidence range, n = 14
Experimental: as §1, §2

[3] = biological target: T2, Recombinant Human GFRα-2/GDNF Rα-2 Fc Chimera (human, UniProt O00451 22-441); assay: SPR (Biacore 2000), human GFRα2-Fc captured on protein A, GDNFv as analyte, 1:1 Langmuir, 25 C
T2 construct: Purchased Fc chimera; not shown: Fc part of a purchased Fc chimera
T2 sequence (looked up): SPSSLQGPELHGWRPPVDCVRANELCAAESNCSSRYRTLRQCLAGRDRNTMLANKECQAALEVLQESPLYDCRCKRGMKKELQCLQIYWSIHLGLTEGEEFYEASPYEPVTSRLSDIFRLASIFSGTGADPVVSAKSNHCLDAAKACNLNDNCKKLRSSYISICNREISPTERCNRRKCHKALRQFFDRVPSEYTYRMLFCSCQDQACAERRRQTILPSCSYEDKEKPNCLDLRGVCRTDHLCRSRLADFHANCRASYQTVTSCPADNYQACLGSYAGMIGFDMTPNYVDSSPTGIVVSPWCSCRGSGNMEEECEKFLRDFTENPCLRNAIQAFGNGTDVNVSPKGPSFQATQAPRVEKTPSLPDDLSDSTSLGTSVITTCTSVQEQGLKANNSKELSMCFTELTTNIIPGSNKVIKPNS
Experimental: A Biacore® 2000 instrument is used to measure the binding kinetics of GDNFv to human and rat GDNF family receptors (GFRα1 and GFRα2). Measurements are performed at 25° C. Samples are dissolved in HBS-EP buffer (150 mM sodium chloride, 3 mM EDTA, 0.005% (w/v) surfactant P-20, pH 7.4). Protein A, Staphylococcus aureus is immobilized on flow cells 1 to 4 of a CM4 sensor chip (GE Healthcare #BR-1005-39) at a level of ˜200 response units (RUs) using amine coupling chemistry to capture GFR Fc chimera (Recombinant Human GFRα-1/GDNF Rα-1 Fc Chimera; Recombinant Human GFRα-2/GDNF Rα-2 Fc Chimera; Recombinant Rat GFRα-1/GDNF Rα-1 Fc Chimera; Recombinant Mouse GFRα-2/GDNF Rα-2 Fc Chimera).
Binding is evaluated using multiple cycles. Each cycle consists of the following steps: 1) injection of about 10 μL of GFR at a concentration of ˜1.0 μg/mL and a flow rate of 10 μL/min., aiming at a capture of 120-150 RUs; 2) injection of 250 μL of GDNFv at a flow rate of 50 μL/min., in a final concentration rage between 10 nM and 0.04 nM followed by […]. for dissociation; and 3) regeneration using about 30 μL of 10 mM glycine hydrochloride, pH 1.5. Association and dissociation rates for each cycle are evaluated using a “1:1 (Langmuir) binding” model in the BIAevaluation software, version 4.1.

[4] = biological target: T1, Recombinant Human GFRα-1/GDNF Rα-1 Fc …; assay: ELISA, plate-bound human GFRα1-Fc; lower end of the 95% confidence range, n = 4
Experimental: as §1, §2

[5] = biological target: T1, Recombinant Human GFRα-1/GDNF Rα-1 Fc …; assay: ELISA, plate-bound human GFRα1-Fc; upper end of the 95% confidence range, n = 4
Experimental: as §1, §2

- EC50 [1]: 0.3 to 0.6 nM
- EC50 [2]: 0.3 to 0.6 nM
- Kd [3]: 0.047 nM
- koff [3]: 0.00025 s⁻¹
- kon [3]: 5.3e+06 M⁻¹ s⁻¹
B1: CHO-Δ31-GDNF (SEQ ID NO: 8) (ligand)
chain: RGQRGKNRGCVLTAIHLNVTDLGLGYETKEELIFRYCSGSCDAAETTYDKILKNLSRNRRLVSDKVGQACCRPIAFDDDLSFLDDNLVYHILRKHSAKRCGCI
modifications: N-glycosylated at N49 (numbering of mature GDNF)
notes: Expressed in CHO cells; also called CHO-Δ31-GDNFv; WT CHO Δ31-GDNFv

- EC50 [4]: 0.3 to 1.9 nM
- EC50 [5]: 0.3 to 1.9 nM
- Kd [3]: 0.047 nM
- koff [3]: 0.00035 s⁻¹
- kon [3]: 7.6e+06 M⁻¹ s⁻¹
B2: CHO-Δ31-N38Q-D95E-GDNF (SEQ ID NO: 9) (ligand)
chain: B1 chain with N7Q, D64E
modifications: N-glycosylated at N49 (numbering of mature GDNF)
notes: Expressed in CHO cells; also called CHO-Δ31-N38Q-D95E-GDNFv; GDNF variant 2
